In patent US20250154271A1 (published 2025):

Experiments:
canine NGF = biological target: T1, canine NGF (canine, UniProt Q29074 110-229 (pig entry), limits assumed); assay: SPR Biacore, NGF amine-coupled to chip
T1 construct: also called cNGF; canine β-NGF
T1 chain: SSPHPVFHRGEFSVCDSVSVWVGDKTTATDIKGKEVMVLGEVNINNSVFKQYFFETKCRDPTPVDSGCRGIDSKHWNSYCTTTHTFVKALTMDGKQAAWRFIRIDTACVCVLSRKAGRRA
Protocol: (§1) Antibody binding affinities of the antibodies against canine NGF were determined by surface plasmon resonance (SPR) on a Biacore system (Biocore Life Sciences (GE Healthcare), Uppsala, Sweden). Immobilization of canine and rat NGF were obtained by amine coupling 5 μg/mL NGF using N-hydroxysuccinimide (NHS)/1-Ethyl-3-(3-dimethylaminopropyl) carbodiimide (EDC) chemistry. Chips were quenched with ethanolamine and the affinity with which all candidate mAbs bound to the immobilized NGF was evaluated. Various concentrations of canine and felinized anti-NGF antibodies were injected over the NGF surfaces while the association of the antibody to the antigen and the dissociation of the formed complex were monitored in real time. Kinetic analysis was performed to obtain the equilibrium dissociation constant (KD).

rat NGF = biological target: T2, rat NGF (rat, UniProt P25427 122-241); assay: SPR Biacore, NGF amine-coupled to chip
T2 construct: Immobilised on the Biacore chip by amine coupling; also called rN
T2 sequence (P25427 122-241 limits assumed): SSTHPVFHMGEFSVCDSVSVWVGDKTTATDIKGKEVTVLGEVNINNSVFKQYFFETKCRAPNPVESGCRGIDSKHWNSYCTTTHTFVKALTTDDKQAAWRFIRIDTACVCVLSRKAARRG
Protocol: as §1

B1: fel48L2 chimera (antibody, V domains shown)
VH: EVQLVESGGDLVKPGGSLRLSCVASGFTFSTYGINWVRQAPGKGLQWVAYISSGGSSTYYADPVKGRFTISRDDAKNMLYLQMNSLRAEDTAIYYCAGSRYTYAYGGGYEFHFWGQGTLVTVSS
VL: QAVLNQPASVSGALGQKVTISCSGSTMDIDIFGVSWYQQLPGKAPKLLVDSDGDRPSGIPDRFSGSRSGNSGTLTITGLQAEDEADYHCQSGDSTLGALAIFGGGTHVTVLG
notes: Canine variable domains on feline constant regions
Kd (canine NGF): 6.25 pM | koff (canine NGF): 2.64e-06 s⁻¹ | kon (canine NGF): 471000 M⁻¹ s⁻¹ | Kd (rat NGF): 0.285 pM | koff (rat NGF): 1.1e-07 s⁻¹ | kon (rat NGF): 387000 M⁻¹ s⁻¹
